From paper PMC6754429, “Structure of full-length wild-type human phenylalanine hydroxylase by small angle X-ray scattering reveals substrate-induced conformational stability” (Scientific Reports, 2019)

Biological target: the molecule itself
Experiment: SEC-SAXS; Shodex KW-404 column coupled to SAXS (B21, Diamond); 12 mg/mL hPAH injected; 20 mM Hepes pH 7.0, 200 mM NaCl; 20 °C; no L-Phe (hPAH^free); molecular mass from the Porod volume

B1: Recombinant full-length wild-type human phenylalanine hydroxylase (His6-hPAH) (enzyme, UniProt P00439 1-452, looked up)
chain: MSTAVLENPGLGRKLSDFGQETSYIEDNCNQNGAISLIFSLKEEVGALAKVLRLFEENDVNLTHIESRPSRLKKDEYEFFTHLDKRSLPALTNIIKILRHDIGATVHELSRDKKKDTVPWFPRTIQELDRFANQILSYGAELDADHPGFKDPVYRARRKQFADIAYNYRHGQPIPRVEYMEEEKKTWGTVFKTLKSLYKTHACYEYNHIFPLLEKYCGFHEDNIPQLEDVSQFLQTCTGFRLRPVAGLLSSRDFLGGLAFRVFHCTQYIRHGSKPMYTPEPDICHELLGHVPLFSDRSFAQFSQEIGLASLGAPDEYIEKLATIYWFTVEFGLCKQGDSIKAYGAGLLSSFGELQYCLSEKPKLLPLELEKTAIQNYTVTEFQPLYYVAESFNDAKEKVRNFAATIPRPFSVRYDPYTQRIEVLDNTQQLKILADSINSEIGILCSALQKIK
notes: human phenylalanine hydroxylase, full-length wild type; The same protein was measured without L-Phe (hPAH^free) and with 1 mM L-Phe (hPAH^Phe); also called hPAH^free; hPAH^Phe; source: E. coli Top10 (pTrcHis-hPAH plasmid), purified (Ni-NTA; PD-10 into SEC buffer, then the beamline SEC column); not shown: His6 (with a 26-amino acid linker), N-terminal, kept
In the case of B1, the “stoichiometry N” value is reported as 4.
